Assay [1] concerns the target cMPL/TPO receptor on M-07e cells (human) (UniProt P40238). The assay is described as follows: cell-based or functional assay.
The target in assay [2] is human thrombopoietin receptor cMPL expressed on the surface of Freestyle HEK293 cells (human) (UniProt P40238). The assay is described as follows: flow cytometry on human cMPL-expressing HEK293 cells, fluorescent anti-IgG1 secondary antibody. In general terms: In flow cytometry, cells or beads pass a laser one at a time.
For assay [3], the target named is mouse thrombopoietin receptor cMPL expressed on the surface of Freestyle HEK293 cells (mouse) (UniProt Q08351). In words: flow cytometry on mouse cMPL-expressing HEK293 cells, fluorescent anti-IgG1 secondary antibody.
Chain of mouse thrombopoietin receptor cMPL expressed on the surface of Freestyle HEK293 cells (mouse) (Q08351 26-625): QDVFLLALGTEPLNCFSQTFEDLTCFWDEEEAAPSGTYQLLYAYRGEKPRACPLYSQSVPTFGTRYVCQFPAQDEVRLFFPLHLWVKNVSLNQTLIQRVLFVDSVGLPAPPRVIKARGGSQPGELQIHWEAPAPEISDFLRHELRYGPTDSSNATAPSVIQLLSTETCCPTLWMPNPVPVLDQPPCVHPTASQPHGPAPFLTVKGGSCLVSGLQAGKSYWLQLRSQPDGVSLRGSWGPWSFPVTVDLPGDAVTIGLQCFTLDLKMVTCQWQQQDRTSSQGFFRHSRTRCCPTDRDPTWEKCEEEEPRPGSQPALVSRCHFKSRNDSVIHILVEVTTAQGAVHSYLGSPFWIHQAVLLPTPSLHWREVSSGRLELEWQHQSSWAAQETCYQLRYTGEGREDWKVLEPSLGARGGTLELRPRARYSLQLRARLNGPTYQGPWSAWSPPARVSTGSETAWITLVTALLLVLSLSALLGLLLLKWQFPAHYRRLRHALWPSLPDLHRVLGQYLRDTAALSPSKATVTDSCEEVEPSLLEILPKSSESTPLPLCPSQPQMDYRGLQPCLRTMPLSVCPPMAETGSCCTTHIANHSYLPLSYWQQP
The target in assay [4] is Flt3 receptor on OCI-AML5 cells (human) (UniProt P36888). In words: cell-based or functional assay.
Chain of Flt3 receptor on OCI-AML5 cells (human) (P36888 27-993): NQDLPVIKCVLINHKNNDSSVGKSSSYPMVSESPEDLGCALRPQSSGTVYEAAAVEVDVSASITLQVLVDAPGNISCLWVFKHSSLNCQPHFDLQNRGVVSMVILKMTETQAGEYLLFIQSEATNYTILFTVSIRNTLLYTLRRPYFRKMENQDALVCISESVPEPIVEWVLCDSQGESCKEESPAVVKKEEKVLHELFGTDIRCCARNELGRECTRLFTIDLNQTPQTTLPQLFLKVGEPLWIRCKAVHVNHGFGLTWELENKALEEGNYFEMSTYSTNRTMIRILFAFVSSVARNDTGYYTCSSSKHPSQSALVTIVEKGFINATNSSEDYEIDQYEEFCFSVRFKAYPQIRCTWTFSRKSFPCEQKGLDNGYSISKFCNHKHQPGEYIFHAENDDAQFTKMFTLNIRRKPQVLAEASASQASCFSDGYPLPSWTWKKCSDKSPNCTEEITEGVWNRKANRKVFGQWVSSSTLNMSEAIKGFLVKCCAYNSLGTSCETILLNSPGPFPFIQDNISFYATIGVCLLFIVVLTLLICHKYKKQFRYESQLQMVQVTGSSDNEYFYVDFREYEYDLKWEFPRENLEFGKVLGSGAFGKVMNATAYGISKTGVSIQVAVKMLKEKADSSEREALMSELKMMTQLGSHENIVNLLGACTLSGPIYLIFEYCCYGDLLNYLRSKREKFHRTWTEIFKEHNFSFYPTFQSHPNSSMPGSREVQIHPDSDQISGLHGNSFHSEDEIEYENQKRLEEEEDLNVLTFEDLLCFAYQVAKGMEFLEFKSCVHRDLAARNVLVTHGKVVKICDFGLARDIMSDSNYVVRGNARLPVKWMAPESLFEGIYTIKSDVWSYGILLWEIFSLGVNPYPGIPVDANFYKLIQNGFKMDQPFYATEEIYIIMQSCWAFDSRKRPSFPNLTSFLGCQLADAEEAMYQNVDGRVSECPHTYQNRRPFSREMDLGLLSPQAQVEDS

Values joined by “and” are separate entries in the source; they are usually repeats but may differ in a detail not shown here. Identical values can stand only once. A value given as a limit tells only on which side of the number the result lay.

As for Nplate (Romiplostim) (Fc fusion), in assay [1], the EC50 of M-07e cell proliferation, XTT assay is 12.1 nM; the percent of M-07e cells positive for Akt phosphorylation is 20%; the percent of M-07e cells positive for Erk1/2 phosphorylation at 6.67 nM is 60%; the percent of M-07e cells positive for Erk1/2 phosphorylation at 13.33 nM came to 60%. The substance also showed a percent of M-07e cells positive for Erk1/2 phosphorylation, 25 ng/ml to 800 ng/ml romiplostim in assay [1] of 60%. Also, the percentage of bound cells in assay [2] is greater than 30 percent. The same substance came in with a percentage of bound cells in assay [3] greater than 40 percent.
As to “FLT3L-romiplostim fusion polypeptide without a His-Tag (Fc fusion)”, the percentage of bound cells is > 30 percent and 40 percent in assay [2]; > 40 percent and 50 percent in assay [3].
In assay [4], FL monomer Fc fusion polypeptide had an apoptosis of starved OCI-AML5 cells, Annexin V flow cytometry of 53.8%; a live cells, starved OCI-AML5, Annexin V flow cytometry of 45.8%; a percent of OCI-AML5 cells positive for Erk1/2 phosphorylation of 75%.
In assay [1], thrombopoietin mimetic (TPOm) peptide had a percent of M-07e cells positive for Akt phosphorylation of less than 5%, a percent of M-07e cells positive for Erk1/2 phosphorylation at 25 ng/ml TPOm of less than 5% and a percent of M-07e cells positive for Erk1/2 phosphorylation at 800 ng/ml TPOm of 20%.
